In article PMC6358605 (2019):

B1: Full-length mouse MANF (wild-type) (natural protein)
chain: LRPGDCEVCISYLGRFYQDLKDRDVTFSPATIEEELIKFCREARGKENRLCYYIGATDDAATKIINEVSKPLAHHIPVEKICEKLKKKDSQICELKYDNQIDLSTVDLKKLRVKELKKILDDWGEMCKGCAEKSDYIRKINELMPKYAPKAASARTDL
B2: biotinylated AviTag-BiP^19–413 (NBD) (domain or fragment)
chain: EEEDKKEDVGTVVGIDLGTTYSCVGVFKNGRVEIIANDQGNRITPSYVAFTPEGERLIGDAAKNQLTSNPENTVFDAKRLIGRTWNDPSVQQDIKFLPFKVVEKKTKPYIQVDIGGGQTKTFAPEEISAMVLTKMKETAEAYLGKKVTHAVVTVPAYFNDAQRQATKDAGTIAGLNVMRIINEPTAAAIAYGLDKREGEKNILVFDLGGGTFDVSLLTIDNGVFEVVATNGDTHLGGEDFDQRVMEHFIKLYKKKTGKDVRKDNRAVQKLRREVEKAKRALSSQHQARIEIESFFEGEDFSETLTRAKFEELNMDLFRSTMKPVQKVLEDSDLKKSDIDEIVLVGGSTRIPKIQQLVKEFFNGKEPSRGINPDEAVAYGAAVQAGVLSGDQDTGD
modifications: biotin (on the AviTag, by E. coli BirA)

Experiments:
[1] = target: B2; assay: BLI; steady-state K1/2 max
[2] = target: B1; assay: BLI; K1/2 max, steady state

Kd [1]	Kd [2]	Binder
13.9 µM		B1
	16 µM	B2
10.3 µM		TVDLKKLRVKELKKILDDWGEMCKGCAEKSDYIRKINELMPKYA (domain or fragment) [SAP domain (126-169)]
